The record followed here is US10253076B2, “Peptides and combination of peptides for use in immunotherapy against ovarian cancer and other cancers” (immatics biotechnologies GmbH, priority 2015, dated 2019).

This experiment concerns the target HLA-A*02:01 (Homo sapiens, UniProt P04439, D140Y/D185E/D98H/E176V/E277Q/G131W/G231S/I119V/I121R/I166T/I218V/L300P/L318F/N151K/N90K/P208A/P217A/Q86G/Q94H/R138H/R169H/T345S). The experiment can be described thus: MHC binding assay (UV-ligand exchange, beta2m ELISA, peptide exchange yield). To be noted: binding of HLA-class I restricted peptides to HLA-A*02:01, ranged by peptide exchange yield (UV-ligand exchange, β2m ELISA). The method, boiled down: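 Readout is a β2m ELISA: stabilized complexes captured on streptavidin, detected with HRP-conjugated anti-β2m and TMB at 450 nm, reporting peptide exchange yield. Complexes come from UV-light cleavage of a conditional ligand in HLA-A*02:01 and replacement by the candidate peptide, samples diluted 100-fold.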

In the case of “5 (HLTEVYPEL; listed as Homo sapiens) [compound 5]”, the Peptide exchange result is on record as “″+++″ (≥50% = +++)”.

As to “103 (TLAEEVVAL; listed as Homo sapiens) [compound 103]”, the Peptide exchange result is “″+++″ (≥50% = +++)”.

As for “85 (KMSELRVTL; listed as Homo sapiens) [compound 85]”, the Peptide exchange entry is reported as “″+++″ (≥50% = +++)”.

Take “208 (KISPVTFSV; listed as Homo sapiens) [compound 208]”: the Peptide exchange entry is recorded as “″+++″ (≥50% = +++)”.

As for “478 (YLLHEKLNL; listed as Homo sapiens) [compound 478]”, the Peptide exchange result is listed as “″+++″ (≥50% = +++)”.

In the case of “218 (SALEELVNV; listed as Homo sapiens) [compound 218]”, the Peptide exchange result was “″++″ (≥20% = ++)”.

As to “84 (VTFGEKLLGV; listed as Homo sapiens) [compound 84]”, the Peptide exchange entry is recorded as “″++″ (≥20% = ++)”.

Regarding “21 (VLDELDMEL; listed as Homo sapiens) [compound 21]”, the Peptide exchange entry was “″++″ (≥20% = ++)”.

For “161 (ALLEGVNTV; listed as Homo sapiens) [compound 161]”, the Peptide exchange result is given as “″+++″ (≥50% = +++)”.

Take “285 (QLLHVGVTV; listed as Homo sapiens) [compound 285]”: the Peptide exchange entry is listed as “″+++″ (≥50% = +++)”.

For the substance “223 (ALLENIALYL; listed as Homo sapiens) [compound 223]”, the Peptide exchange result was “″+++″ (≥50% = +++)”.

“337 (HLLSELEAAPYL; listed as Homo sapiens) [compound 337]”: the Peptide exchange result is “″++++″ (≥75% = ++++)”.

Take “345 (VIWKALIHL; listed as Homo sapiens) [compound 345]”: the Peptide exchange entry was “″+++″ (≥50% = +++)”.

Regarding “438 (KLLPLAGLYL; listed as Homo sapiens) [compound 438]”, the Peptide exchange entry is “″++++″ (≥75% = ++++)”.

For “244 (SLFGGTEITI; listed as Homo sapiens) [compound 244]”, the Peptide exchange result is on record as “″+++″ (≥50% = +++)”.

On to “491 (GLNDRSDAV; listed as Homo sapiens) [compound 491]”, for which the Peptide exchange result was “″++″ (≥20% = ++)”.

With “526 (RLAEVGQYEQV; listed as Homo sapiens) [compound 526]”, the Peptide exchange result is “″++″ (≥20% = ++)”.

For “240 (ILLEQAFYL; listed as Homo sapiens) [compound 240]”, the Peptide exchange result is given as “″+++″ (≥50% = +++)”.

In the case of “496 (FLVEKQPPQV; listed as Homo sapiens) [compound 496]”, the Peptide exchange result is listed as “″+++″ (≥50% = +++)”.

Take “271 (LVYPLELYPA; listed as Homo sapiens) [compound 271]”: the Peptide exchange result is on record as “″+++″ (≥50% = +++)”.

For the substance “280 (VLPDPEVLEAV; listed as Homo sapiens) [compound 280]”, the Peptide exchange entry is listed as “″+++″ (≥50% = +++)”.

“461 (VMFRTPLASV; listed as Homo sapiens) [compound 461]”: the Peptide exchange result is “″++″ (≥20% = ++)”.

As for “552 (GLLDLPFRVGV; listed as Homo sapiens) [compound 552]”, the Peptide exchange entry was “″++++″ (≥75% = ++++)”.

In the case of “217 (ALIHPVSTV; listed as Homo sapiens) [compound 217]”, the Peptide exchange entry is listed as “″++″ (≥20% = ++)”.

Take “162 (YQQAQVPSV; listed as Homo sapiens) [compound 162]”: the Peptide exchange result was “″+++″ (≥50% = +++)”.

As to “96 (YIFTDNPAAV; listed as Homo sapiens) [compound 96]”, the Peptide exchange result is listed as “″+++″ (≥50% = +++)”.

In the case of “72 (SLLELDGINL; listed as Homo sapiens) [compound 72]”, the Peptide exchange entry is recorded as “″+++″ (≥50% = +++)”.

With “153 (FLIANVLYL; listed as Homo sapiens) [compound 153]”, the Peptide exchange entry was “″+″ (≥10% = +)”.

Consider “261 (YVLEFLEEI; listed as Homo sapiens) [compound 261]”, for which the Peptide exchange result is “″++″ (≥20% = ++)”.

For the substance “90 (TLLQIIETV; listed as Homo sapiens) [compound 90]”, the Peptide exchange result was “″+++″ (≥50% = +++)”.

On to “584 (ALAEVAAMENV; listed as Homo sapiens) [compound 584]”, for which the Peptide exchange result is recorded as “″+++″ (≥50% = +++)”.

“440 (ALADGVTMQV; listed as Homo sapiens) [compound 440]”: the Peptide exchange result was “″++″ (≥20% = ++)”.

Take “94 (YLIDIKTIAI; listed as Homo sapiens) [compound 94]”: the Peptide exchange result is reported as “″++″ (≥20% = ++)”.

On to “520 (LAVHPSGVAL; listed as Homo sapiens) [compound 520]”, for which the Peptide exchange result is recorded as “″+″ (≥10% = +)”.

On to “546 (VMIAGKVAVV; listed as Homo sapiens) [compound 546]”, for which the Peptide exchange result was “″+++″ (≥50% = +++)”.

With “462 (KLAKQPETV; listed as Homo sapiens) [compound 462]”, the Peptide exchange result was “″+++″ (≥50% = +++)”.

As for “214 (FLLDLDPLLL; listed as Homo sapiens) [compound 214]”, the Peptide exchange entry is listed as “″+++″ (≥50% = +++)”.

In the case of “490 (FLLQHVQEL; listed as Homo sapiens) [compound 490]”, the Peptide exchange result is “″+++″ (≥50% = +++)”.

Turning to “330 (QLALKVEGV; listed as Homo sapiens) [compound 330]”, the Peptide exchange entry is recorded as “″+++″ (≥50% = +++)”.

As to “180 (FQIDPHSGLVTV; listed as Homo sapiens) [compound 180]”, the Peptide exchange result was “″++″ (≥20% = ++)”.

As to “43 (VLSSLEINI; listed as Homo sapiens) [compound 43]”, the Peptide exchange entry is listed as “″++″ (≥20% = ++)”.

As for “26 (ALLELAEEL; listed as Homo sapiens) [compound 26]”, the Peptide exchange entry is listed as “″+++″ (≥50% = +++)”.

Turning to “22 (IMEENPGIFAV; listed as Homo sapiens) [compound 22]”, the Peptide exchange entry is on record as “″+++″ (≥50% = +++)”.

For “64 (YAAPGGLIGV; listed as Homo sapiens) [compound 64]”, the Peptide exchange result is recorded as “″++″ (≥20% = ++)”.

Consider “611 (YLLDDGTLVV; listed as Homo sapiens) [compound 611]”, for which the Peptide exchange entry is reported as “″++++″ (≥75% = ++++)”.

In the case of “561 (YLQLTQSEL; listed as Homo sapiens) [compound 561]”, the Peptide exchange entry is “″+++″ (≥50% = +++)”.

Consider “383 (ALLELENSVTL; listed as Homo sapiens) [compound 383]”, for which the Peptide exchange result is recorded as “″+++″ (≥50% = +++)”.

Consider “4 (GIMEHITKI; listed as Homo sapiens) [compound 4]”, for which the Peptide exchange entry is recorded as “″++++″ (≥75% = ++++)”.

For the substance “31 (YLAPELFVNV; listed as Homo sapiens) [compound 31]”, the Peptide exchange entry is “″++″ (≥20% = ++)”.

As for “504 (GLSDGNPSL; listed as Homo sapiens) [compound 504]”, the Peptide exchange entry is on record as “″++″ (≥20% = ++)”.

Consider “160 (FLFDEEIEQI; listed as Homo sapiens) [compound 160]”, for which the Peptide exchange result is given as “″+++″ (≥50% = +++)”.

As to “558 (GLLENIPRV; listed as Homo sapiens) [compound 558]”, the Peptide exchange entry is on record as “″+++″ (≥50% = +++)”.

For “556 (FLTDLEDLTL; listed as Homo sapiens) [compound 556]”, the Peptide exchange entry is reported as “″+++″ (≥50% = +++)”.
